Assay results taken from paper PMC3557803.

What was measured:
Assay in all cases: UV-visible absorbance assay of deamination
Assay type in all cases: biochemical, Martinezella rhizogenes
Settings in all cases: 20 mM HEPES pH 7.7
[1] = substrate: C[C@H](O)C(=O)C1=Nc2c(nc(N)[nH]c2=O)NC1
[2] = substrate: C[C@H](O)[C@H](O)C1=Nc2c(nc(N)[nH]c2=O)NC1
[3] = substrate: C[C@H](O)[C@H](O)c1cnc2[nH]c(N)nc(=O)c2n1
[4] = substrate: Nc1nc2[nH]c(=O)cnc2c(=O)[nH]1
[5] = substrate: Nc1nc2c(c(=O)[nH]1)N=C(CO)CN2
[6] = substrate: Nc1nc2c(c(=O)[nH]1)N=C([C@H](O)[C@H](O)CO)CN2
[7] = substrate: Nc1nc2nc(C(=O)O)cnc2c(=O)[nH]1
[8] = substrate: Nc1nc2ncc(C(=O)O)nc2c(=O)[nH]1
[9] = substrate: Nc1nc2ncc(C=O)nc2c(=O)[nH]1
[10] = substrate: Nc1nc2ncc(CNc3ccc(C(=O)N[C@@H](CCC(=O)O)C(=O)O)cc3)nc2c(=O)[nH]1
[11] = substrate: Nc1nc2ncc(CO)nc2c(=O)[nH]1
[12] = substrate: Nc1nc2ncc([C@H](O)[C@H](O)CO)nc2c(=O)[nH]1
[13] = substrate: Nc1nc2nccnc2c(=O)[nH]1

B1: Arad3529 (Rhizobium rhizogenes K84) (protein)
chain: MSYSFMSPPNAARFVLSNATVPAVTVVGFTGPSSEGLMKADIVVADGLIKDILPAGTAPAELAKADMRDGMVWPTFADMHTHLDKGHIWERRANPDGSFMGALDAVRSDREANWSAADVRKRMEFSLRAAYAHGTSLIRTHLDSLAPQHRISFEVFSEVREAWKDKIALQAVALFPLDFMVDDAFFADLTTVVREAGGLLGGVTQMNPDIDAQLDKLIRAAAANGLDIDLHVDETEDREVLTLKAIAAAVLRNGFTGKVTAGHCCSLARQDENVAAATIDLVAKAGISIVALPMCNMYLQDRHPGRTPRWRGVTLLHELAAAGVPTAVASDNTRDPFYAYGDLDPVEVFREAVRILHLDHPLDTAARVVTTSPASILGRPDIGRIAVGGPADLVLFSARRWSEFLSRPQSDRVVLRKGKVIDRSLPDYRELDTVIGA
For B1, the Km [1] was 22 ± 9 µM, the kcat [1] was 2.9 ± 0.3 s⁻¹ and the kcat/Km [1] was 130000 M⁻¹ s⁻¹. For the same protein, the Km [2] was 93 ± 13 µM, the kcat [2] was 0.09 ± 0.007 s⁻¹ and the kcat/Km [2] was 930 M⁻¹ s⁻¹. It also gave a Km [3] of 47 ± 9 µM, a kcat [3] of 46 ± 4 s⁻¹ and a kcat/Km [3] of 1e+06 M⁻¹ s⁻¹. For the same protein, the Km [4] was 5.7 ± 0.5 µM, the kcat [4] was 1.6 ± 0.1 s⁻¹ and the kcat/Km [4] was 280000 M⁻¹ s⁻¹. It also gave a Km [5] of 37 ± 7 µM, a kcat [5] of 1.2 ± 0.1 s⁻¹ and a kcat/Km [5] of 33000 M⁻¹ s⁻¹. The Km [6] was 200 ± 100 µM, the kcat [6] was 0.036 ± 0.008 s⁻¹ and the kcat/Km [6] was 260 M⁻¹ s⁻¹. It also gave a Km [7] of 13 ± 1 µM, a kcat [7] of 48 ± 2 s⁻¹ and a kcat/Km [7] of 3.7e+06 M⁻¹ s⁻¹. For the same protein, the Km [8] was 27 ± 2 µM, the kcat [8] was 110 ± 3 s⁻¹ and the kcat/Km [8] was 4e+06 M⁻¹ s⁻¹. For the same protein, the Km [9] was 12 ± 2 µM, the kcat [9] was 64 ± 12 s⁻¹ and the kcat/Km [9] was 5.2e+06 M⁻¹ s⁻¹. For the same protein, the Km [10] was 50 ± 10 µM, the kcat [10] was 6.4 ± 0.5 s⁻¹ and the kcat/Km [10] was 130000 M⁻¹ s⁻¹. For the same protein, the Km [11] was 23 ± 3 µM, the kcat [11] was 28 ± 1 s⁻¹ and the kcat/Km [11] was 1.2e+06 M⁻¹ s⁻¹. The Km [12] was 61 ± 7 µM, the kcat [12] was 19 ± 1 s⁻¹ and the kcat/Km [12] was 310000 M⁻¹ s⁻¹. For the same protein, the Km [13] was 39 ± 4 µM, the kcat [13] was 131 ± 4 s⁻¹ and the kcat/Km [13] was 3.3e+06 M⁻¹ s⁻¹.
